Patent US20040142445

Experiments:
[1] = molecular target: recombinant aggrecan G1G2, P16112
[2] = molecular target: natural type aggrecan (mfd. by Seikagaku Kogyo)

Chain of recombinant aggrecan G1G2, P16112 (P16112 20-675): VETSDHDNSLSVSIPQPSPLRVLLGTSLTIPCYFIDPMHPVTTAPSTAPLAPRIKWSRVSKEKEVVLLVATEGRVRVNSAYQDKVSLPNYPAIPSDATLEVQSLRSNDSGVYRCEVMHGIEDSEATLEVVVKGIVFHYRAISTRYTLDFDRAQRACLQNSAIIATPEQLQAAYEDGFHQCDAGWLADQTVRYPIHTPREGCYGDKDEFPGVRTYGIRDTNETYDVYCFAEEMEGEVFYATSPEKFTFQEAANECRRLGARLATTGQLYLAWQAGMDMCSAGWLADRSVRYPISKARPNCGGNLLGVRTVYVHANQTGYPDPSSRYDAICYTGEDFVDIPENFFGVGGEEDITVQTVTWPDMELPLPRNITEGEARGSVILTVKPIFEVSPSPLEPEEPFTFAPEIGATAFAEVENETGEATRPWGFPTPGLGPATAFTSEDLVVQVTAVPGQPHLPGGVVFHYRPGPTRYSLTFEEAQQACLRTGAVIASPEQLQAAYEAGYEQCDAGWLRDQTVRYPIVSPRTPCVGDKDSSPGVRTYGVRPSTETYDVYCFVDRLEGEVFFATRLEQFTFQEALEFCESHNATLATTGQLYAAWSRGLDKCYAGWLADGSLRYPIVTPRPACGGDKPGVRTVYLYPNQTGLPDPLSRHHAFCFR

| Protein | recombinant aggrecan G1G2 degrading activity (western blot, anti-His detection) [1] | aggrecanase activity (method of Example 7-3, neoepitope western blot) [1] | cleavage at the aggrecanase site (western blot) [1] | cleavage at the aggrecanase site (western blot) [2] | degradation of natural type aggrecan (neoepitope western blot) [2] |
| --- | --- | --- | --- | --- | --- |
| MDTS6TSP1 protein (protein) FVSIPRYVETLVVADESMVKFHGADLEHYLLTLLATAARLYRHPSILNPINIVVVKVLLLRDRDSGPKVTGNAALTLRNFCAWQKKLNKVSDKHPEYWDTAILFTRQDLCGATTCDTLGMADVGTMCDPKRSCSVIEDDGLPSAFTTAHELGHVFNMPHDNVKVCEEVFGKLRANHMMSPTLIQIDRANPWSACSAAIITDFLDSGHGDCLLDQPSKPISLPEDLPGASYTLSQQCELAFGVGSKPCPYMQYCTKLWCTGKAKGQMVCQTRHFPWADGTSCGEGKLCLKGACVERHNLNKHRVDGSWAKWDPYGPCSRTCGGGVQLARRQCTNPTPANGGKYCEGVRVKYRSCNLEPCPSSASGKSFREEQ | degraded fragment of the recombinant aggrecan, which was not found in the control in which only the expression plasmid was introduced, was detected | – | – | – | – |
| MDTS6Cys (protein) FVSIPRYVETLVVADESMVKFHGADLEHYLLTLLATAARLYRHPSILNPINIVVVKVLLLRDRDSGPKVTGNAALTLRNFCAWQKKLNKVSDKHPEYWDTAILFTRQDLCGATTCDTLGMADVGTMCDPKRSCSVIEDDGLPSAFTTAHELGHVFNMPHDNVKVCEEVFGKLRANHMMSPTLIQIDRANPWSACSAAIITDFLDSGHGDCLLDQPSKPISLPEDLPGASYTLSQQCELAFGVGSKPCPYMQYCTKLWCTGKAKGQMVCQTRHFPWADGTSCGEGKLCLKGACVERHNLNKHRVDGSWAKWDPYGPCSRTCGGGVQLARRQCTNPTPANGGKYCEGVRVKYRSCNLEPCPSSASGKSFREEQCEAFNGYNHSTNRLTLAVAWVPKYSGVSPRDKCKLICRANGTGYFYVLAPKVVDGTLCSPDSTSVCVQGKCIKAGCDGNLGSKKRFDKCGVCGGDNKSCKKVTGGSAAADYKDDDDK | – | the aggrecanase activity was detected in the culture supernatant in which MDTS6Cys was expressed | the recombinant aggrecan G1G2 and the natural type aggrecan are cleaved off at the site between Glu373-Ala374 ... by MDTS6Cys | the recombinant aggrecan G1G2 and the natural type aggrecan are cleaved off at the site between Glu373-Ala374 ... by MDTS6Cys | a band of 80 to 90 KDa was detected in the case of MDTS6Cys in addition to a band of about 150 KDa |
| MDTS6Pro (protein) FVSIPRYVETLVVADESMVKFHGADLEHYLLTLLATAARLYRHPSILNPINIVVVKVLLLRDRDSGPKVTGNAALTLRNFCAWQKKLNKVSDKHPEYWDTAILFTRQDLCGATTCDTLGMADVGTMCDPKRSCSVIEDDGLPSAFTTAHELGHVFNMPHDNVKVCEEVFGKLRANHMMSPTLIQIDRANPWSACSAAIITDFLDSGHGDCLLDQPSKPISLPEDLPGASYTLSQQGSAAADYKDDDDK | – | the aggrecanase activity was not detected in the culture supernatants in which MDTS6Pro and MDTS6Dis were expressed | – | – | – |
| MDTS6Dis (protein) FVSIPRYVETLVVADESMVKFHGADLEHYLLTLLATAARLYRHPSILNPINIVVVKVLLLRDRDSGPKVTGNAALTLRNFCAWQKKLNKVSDKHPEYWDTAILFTRQDLCGATTCDTLGMADVGTMCDPKRSCSVIEDDGLPSAFTTAHELGHVFNMPHDNVKVCEEVFGKLRANHMMSPTLIQIDRANPWSACSAAIITDFLDSGHGDCLLDQPSKPISLPEDLPGASYTLSQQCELAFGVGSKPCPYMQYCTKLWCTGKAKGQMVCQTRHFPWADGTSCGEGKLCLKGACVERHNLNKHRVDGSGSAAADYKDDDDK | – | the aggrecanase activity was not detected in the culture supernatants in which MDTS6Pro and MDTS6Dis were expressed | – | – | – |
